# According to article doi:10.1101/2021.05.24.445460 (bioRxiv, 2021):
# Biological target: repeat-domain of Tau (Tau^RD) (human, UniProt P10636-8 244-373)
# Experiment: co-IP
# Chain of repeat-domain of Tau (Tau^RD) (P10636 561-690): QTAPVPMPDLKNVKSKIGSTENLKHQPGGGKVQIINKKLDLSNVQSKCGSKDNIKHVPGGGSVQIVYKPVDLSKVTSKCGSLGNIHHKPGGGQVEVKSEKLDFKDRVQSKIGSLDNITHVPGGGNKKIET
binder,measurement,value
"microglial P2Y12 receptor (receptor, mouse (endogenous in N9), UniProt Q9CPV9 1-347, looked up) MDVPGVNTTSANTTFSPGTSTLCVRDYKITQVLFPLLYTVLFFAGLITNSLAMRIFFQIRSKSNFIIFLKNTVISDLLMILTFPFKILSDAKLGAGPLRTLVCQVTSVTFYFTMYISISFLGLITIDRYLKTTRPFKTSSPSNLLGAKILSVVIWAFMFLISLPNMILTNRRPKDKDVTKCSFLKSEFGLVWHEIVNYICQVIFWINFLIVIVCYSLITKELYRSYVRTRGSAKVPKKKVNVKVFIIIAVFFICFVPFHFARIPYTLSQTRAVFDCSAENTLFYVKESTLWLTSLNACLDPFIYFFLCKSFRNSLTSMLRCSNSTSTSGTNKKKGQEGGEPSEETPM","fold band intensity against cell control, 1 uM Tau^RD",1.2 fold
same,"fold band intensity against cell control, 5 uM Tau^RD",2 fold
